Experimental data: patent publication US20170202953A1 (AGENCY FOR SCIENCE TECHNOLOGY AND RESEARCH, published 2017)

Legend:
[1] = target: T1, HBV envelope antigen (HBs370-79, genotype A/D) peptide on HLA-A*02:01 (human); test: cytokine release
T1 peptide: SIVSPFIPLL

[2] = target: T2, HBV envelope antigen (HBs370-79, genotype B) peptide on HLA-A*02:01 (human); test: cytokine release
T2 peptide: NILSPFMPLL

[3] = target: T3, HBV envelope antigen (HBs370-79, genotype C) peptide on HLA-A*02:01 (human); test: cytokine release
T3 peptide: NILNPFLPLL

[4] = target: T4, HBc18-27-HLA-A201 pentamer (PE-conjugated HLA-A2 class I pentamer bearing the HBc18-27 epitope, Proimmune) (Hepatitis B virus; human); test: flow cytometry, pentamer staining of transduced lymphocytes; the filing puts the difference down to expression of the Vα3 chain
T4 construct: also called HLA-A2 pentamer; HBc18-HLA-A201 pentamer

[5] = target: T5, HBV core antigen (HBc18-27, genotype B/C; 27I) peptide on HLA-A*02:01 (human); test: T cell clone or line
T5 peptide: FLPSDFFPSI

[6] = target: T6, HBV core antigen (HBc18-27, genotype B/C; 27I) peptide on HLA-A*02:06 (human); test: T cell clone or line
T6 peptide: FLPSDFFPSI

[7] = target: T7, HBV core antigen (HBc18-27, genotype B/C; 27I) peptide on HLA-A*02:07 (human); test: T cell clone or line
T7 peptide: FLPSDFFPSI

B1: HBs370-79 TCR (TCR, V domains shown)
Valpha: QKEVEQNSGPLSVPEGAIASLNCTYSDRGSQSFFWYRQYSGKSPELIMFIYSNGDKEDGRFTAQLNKASQYVSLLIRDSQPSDSATYLCAVNLYAGNMLTFGGGTRLMVKP
Vbeta: GAGVSQSPRYKVAKRGQDVALRCDPISGHVSLFWYQQALGQGPEFLTYFQNEAQLDKSGLPSDRFFAERPEGSVSTLKIQRTQQEDSAVYLCASSSDFGNQPQHFGDGTRLSIL
binding result [1]: recognises | binding result [2]: recognises | binding result [3]: recognises

B2: HBc18-Opt-TCR (codon optimized HBc18-27 TCR, Vα3 / Vβ8.2) (TCR, V domains shown)
V domain 1: SQQGEEDPQALSIQEGENATMNCSYKTSINNLQWYRQNSGRGLVHLILIRSNEREKHSGRLRVTLDTSKKSSSLLITASRAADTASYFCATWLSGSARQLTFGSGTQLTVLP
V domain 2: DAGVIQSPRHEVTEMGQEVTLRCKPISGHDYLFWYRQTMMRGLELLIYFNNNVPIDDSGMPEDRFSAKMPNASFSTLKIQPSEPRDSAVYFCASSNRASSYNEQFFGPGTRLTVLE
notes: also called codon optimized TCR; HBc18-Opt-Vα3 and HBc18-Opt-Vβ8.2
fold frequency of pentamer positive cells against HBc18-WT-TCR [4]: 2 fold

B3: HBc18-27 TCR (TCR, V domains shown)
Valpha: B2 V domain 1
Vbeta: DAGVIQSPRHEVTEMGQEVTLRCKPISGHDYLFWYRQTMMRGLELLIYFNNNVPIDDSGMPEDRFSAKMPNASFSTLKIQPSEPRDSAVYFCASSNRASSYNEQFFGPGTRLTVL
peptide concentration still recognised [5]: ≤ 1 pM | peptide concentration still recognised [6]: ≤ 1 pM | peptide concentration still recognised [7]: ≤ 1 pM
